Among the data in PMC8682759 are Kd values, retold here.

The chains are these.
B1: AcP-TRap3 (structured_RNA)
RNA: GGAUCCAAGCUUGUUUGGCCCAAUAACGUCGAUUGAUUGUGGCCUAGAUAAAUUCGGAGCUUUCAAUGAAUUACACAACAAUGCUUUCGACGGAGAAUUC
B2: AcP-TRap4 (structured_RNA)
RNA: GGAUCCAAGCUUGUUUGGCCCAAUUCCUCGUCUUCAGACUGGCCUAGAUAAAUUCGGAGCUUGUUCACAACCUCUACUUCCUGCUUUCGACGGAGAAUUC
B3: AcP-TRap2 (structured_RNA)
RNA: GGAUCCAAGCUUGUUUGGCAUUCCACGUCGAUAAAAGAUUGGCCUAGAUAAAUUCGGAGCUUAAAAUUCCCUCCUAUCUUUUGCUUUCGACGGAGAAUUC
B4: AcP-TRap1 (structured_RNA)
RNA: GGAUCCAAGCUUGUUUGGCUCCAACCGUCCCCGCGUAUAUGGCCUAGAUAAAUUCGGAGCUUUUUGCCCAUCCUCAUAUAUUGCUUUCGACGGAGAAUUC

In the data set the target is beta-actin (monomeric, G-actin) (human, UniProt P60709 2-375). Kind of data set: fluorescence turn-on of BHQ1 probe; apparent; 10 mM Mg2+, BHQ1 probe; 10 mM Tris-HCl pH 7.6, 100 mM KCl, 10 mM MgCl2 (Kd assays), room temperature; RNA 3 uM with actin 3 uM preincubated 30 min at 25 C, then probe 1 uM (final) in 2.
On to B1, for which the Kd was 1000 nM.

On to B2, for which the Kd was 200 nM.

For B3, the Kd came out at 600 nM.

For B4, the Kd was found to be 1500 nM.
